Assay results published in the nanobody polyreactivity screen of Harvey et al. (2022).

Assay: yeast display, Sf9 membrane polyspecificity reagent, FACS + sequencing; frameworks hold sequencing errors
How it was run: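 Using colony PCR, genes from sorted yeast display clones were amplified, then sequenced on MiSeq at 2 × 250 and filtered by CDR length. The clones had been stained with 10% biotinylated, detergent-solubilized Sf9 membrane reagent for 1 hour at 4 °C and sorted by FACS into low and high (top ~1%) gates on anti-HA and streptavidin fluorescence. Polyreactivity labels come from the gate of origin.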

| Sequence | polyreactivity (PSR sort gate) |
| --- | --- |
| QVQLVESGGGLVQAGGSLRLSCAPSGSTFFSKTMGWYRQAPWKERELVAAINDSGTSTYYADSVKRRFTISRDNSKKTVYLQMNSLKPEDTAVYYCAAYPSGWYDYWGQGTQVTVSS | low polyreactivity |
| QVQLVESGGGLVQAGGSLRLSCAASGITFQSNDMGWYRQAPGKERELVAAISWSDDTTYYADSVKGRFTISRDNAKNTVYLQMNSLKPEDTAVYYCAAVYDSKSYYYWGQGTQVTVSS | high polyreactivity |
| QVQLVESGGGLVQAGGSLRLSCAATGSIFRRYAMGWYGQAPGKERELVAAISWSGGSTYYADSVKGRFTISRDNAKNTVYLQMNSLKPEDTAVYYCAARHRQQKLDYWGQGTQVTVSS | high polyreactivity |
| QVQLVESGGGLVQAGGSLRLSCAASGSTFYENTMGWYRQATGKERELVAAISFRGGSTYYADSVKGRFTISRDNAKNTVYLQMNSLKPEDTAVYYCNADDSPVPSIRFDYWGQGTQVTVSS | low polyreactivity |
| QVQLVESGGGLVQAGGSLRLSCAASGRIFDRNAMGWSRQAPGKERELVAAITRSGGRTYYADSVKGRFTISRDNAKYTVYLQMNSLKPEDTAVYYCNRGYPRSVVHYNSWGQGTQVTVSS | high polyreactivity |
| QVQLVESGGGLVQAGRSLRLSCAASGSIFTHNAMGWYRQAPGKERELVASITSRGGITYYADSVKGRFTISRDNAKNTVYLQMNSLKPEDTAVYYCAADLYIYPYDYWGQGTQVTVSS | low polyreactivity |
| QVQLVESGGGLVQAGGSLRLSCAASGSTFAQNTKGWYRQAPGKERELVATISDGGGSTYYADSVKGRFTISRDNAKNTVYLQMNSLKPEDTAVYYCNTDRFWPSDYWGQGTQVTVSS | low polyreactivity |
| QVQLVESGGGLVEAGGSLRLSCAASGSIFGNYALGWYRQAPGKERELVAAITSSNGNTYNADSVKGRFTISRDTAKNTVYFQMNSLKPEDTAVYYCATDSWSPYLQTIFYYWGHGTQVTVSS | low polyreactivity |
| KVQLVDSGGGLVQAGGSLRLSCAASGSTSKCYAMGWYRPEPGKERELVAAITKTGGRTYYADSVKGRFTISRDNAKNTVYLQMNSLKPEDTADYYCAVEYLRGFIVIYDYWGQGTQVTVTS | high polyreactivity |
| QVQLVESGGGLVQAGGSLRLSCAASGSIISSNAMGWYRQAPGKEREMVAAITWSGGSTYYADSVKGRFTNSRDNAKNTVYLQMNSLKPEDTAVYYCAADQWRYDGSFTGYGYWGQGTQVTVSS | low polyreactivity |
| QVQLVESGGGLVQAGGSLRLSCAASGRITFRNAMVWYRQAPGKERELVASITSGGSTYYADSVKGRFTISRDNAKNTVYLQMNSLKPEDTAVYYCAGEGTARTSPPMDYWGQGTQVTVSS | high polyreactivity |
| QVQLVESGGGLVQEGGSLRLSCAASGSIFYRNAMGWYRQAPGKERELVAAISSDGSTNYADSVKGRFTISRDNAKNTVYLHMNSLKPEDTAVYYCAAPWTQILDYWGQGTQVTVSS | low polyreactivity |
| QLQLVESGGGLVQAGGSLRLSCAASGLIFYDNMGWYRQAPGKERELVAAISSSGGSTSYADSVKGRFTISRDNAKNTVYLHMNSLKPEDTAVYYCAADSYPAYLGFVGFDYWGQGTQVTVSS | low polyreactivity |
| QVQLVESGGGIVQAGGSLRLSCAASGFTYWFYAMGWYRQAPGKERELVAAISRGGSTYYADSVKGRFTFSRDKAKNTVYLQMNSLKPEDTAVYYCAADFVHRGYYYWGQGTQVTVSS | high polyreactivity |
| QVQLVESGGGLVQAGGSLRLSCAASGRTFPINAMGWYRQAPGKERELVASIRWTDGTTYYADSVKGRFTISRDNAKNTVYLQMNSLKPEDTAVYYCAADAEGSASKYDYWGQGTQVTVSS | low polyreactivity |
| QVQLVESGGLLVQAGGILRLSCAASGITFQYYAMGWSRQAPGKERELVAANTSSGVSTYYADSVKGRFTISRDNAKNTVYFQMNSLKPEDTAVYYCNTVVRGWSSSADDYWVQGTQVTVSS | low polyreactivity |
| QVQLVESGGGLVQAGGSLRLICAASGFIFRNYARGWYRQAPGKERELVAAITRSGTSTYYADSVKGRFTISRDNAKNTVYLQMNSLKPEDTAVYYCNAGWGLRLSWLGNYWGQGTQVTVSS | high polyreactivity |
| QVQLVESGGGLVQAGGSLRLSCAASGRIFRLYAMGWYRQAPGKERELVAAISKSGGSTYYADSVKGRFTISRDNAKNTVYLQMNSLKPEDTAVYYCAADYRTHGGYEGTFDYWGQGTQVTVSS | low polyreactivity |
| QVQLVESGGGLVQAGGSLRLSCAASGSIFDSNAMGWYRQAPRQERELVAAISSGGNTNYADSVKGRFTISRDNAKNTVYLQMNSLKPDDTAVYYCARDTQLPHFYGRVSEYDYWGQGTQVTVSA | low polyreactivity |
| QVQLVESGGGLVQAGGSLRLSCAASGFNFSYYVMGWSRQAPGKERELVAAITKSGGSTYYADSVKGRFTISRDNAKNTVYLQMNSLKPEDTAVYYCAAVRGYRGYDYWGQGTQVTVSS | high polyreactivity |
| QVQLVESGGGLVQAGGSLRLSCAASGFTFGSYAMGWYRQAPGKERELVAAITSRGGSTYYADSVKGRFTISRDNAKNTVYLQMNSLKPEDTAVYYCNAVLPVYRTNMDYWGQGTQVTVSS | high polyreactivity |
| QVKLVESGGGLVQAGGSLRLSCAASGRTFINYAMGWYRQAPGKERELVAAITTGGRTNYADSVKGRFTISRDNSKNTVYLQMNSLKPEDTEVYYCAADRYDWGRNTLNYWGQGTQVTVSS | low polyreactivity |

| Sequence | polyreactivity (PSR sort gate) |
| --- | --- |
| QVQLVESGGGLVQAGGSLRLSCAASGRIFGWYAMGWYRQAPGKERELVAAISSGGRTNYADSVKGRFTISRDNAKNTVYLQMNSLKPEDTAVYYCNARRTYLPYKFGYDYWGQGTQVTVSS | low polyreactivity |
| QVQLVESGGGLVEAGGSLRISCAASGYIFLRNAMGWYRQAPGKERELVAAIRRTGGSTYYADSVKGRFTISRDNAKNSVYVQMNSLKPEASAVYYCAKRSYTGYEYWGQGNQVTVSS | low polyreactivity |
| QVQLVESGGGLVQAGGSLRLNCAASGSTFGRNAKGWYRQAPGKERELVAAISLSTGSTYDADSVKGRFTISRDNAKNTVYLQMNSLKPEDTAVYYCAKEWGHPYHFLYYYWGQGTQVTVSS | high polyreactivity |
| QVQLVESGGGLVQAGGSLRLSCAASGSIFWYYAMGWYRQAPGKERELVAAISSGGSTYYADSVKGRYTISRDNAKNTVYLQMNSLKPEDTAVYYCAAGAFGQILNYWGQGTQVTVSS | high polyreactivity |
| QVQLVESGGGLVQAGGSLRLSCAASGSTFWYYVMGWYRQAPGKERELVAAISTRGDSTYYADSVKGRFTISRDNAKNTVYLQMNSLKPEETAVYYCAKYRQSSGRVRFDYWGQGTQVTVSS | low polyreactivity |
| QVQLVESGGGLVQAGGSLRLSCADSGNTFPSYVMGWYRQAPGKERELVAAINRGGGTYYADSVKGRFTISRDNAKNTVYLQMNSLKPEDTAVYYCAVRYQRHPNMDYWGQGTQVTVSS | low polyreactivity |
| QVQLVESGGGLVQAGGSLRLSCAASGRIFDYYTMGGYRQAPGKETELVAAINWSGGSTYYADSVKGRFTISRDNAKNTVYLQMNSLKPEDTAVYYCATLSYGREYGYWGQGTQVTVSS | low polyreactivity |
| QVQLVESGGGLVQAGGSLRLSCAASGFTSAPYAMGWYRQAPGKERELVAAITRTGGSTYYADSVKGRFTISRDNAKNTVYLQMNSLKPEDTAVYYCAVRLSGYQYHFRYGYWGQGTQVTVSS | high polyreactivity |
| QVQLVESGVGLVQAGGSLRLSCASSGLIFYDNMGWYRQAPGKERELVAAISSSGGSTSYADSVKGRFTISRDNAKNTVYLQMNSLKPEDTAVYYCAADYRRYGSYDYWGQGTQVTVSS | low polyreactivity |
| QVELVESGGGLVQPGGRLRLSCAASGFTFNYYAMGWYRQAPGKEREFVAAISRGGGRTYYADSVKGRFTISRDNAKNTVYLQMNSLKPEDTAVYYCAAQSVPYAYRLASYDYWGQGTQVTVSS | high polyreactivity |
| QVQLQESGGGLVQAGGSLRLTCAASGSISYPRTMGWYRQAPGKEREFVAGIGVGGTTYYADSVKGRYTISRDNAKNTVYLQMNSLKPEHAAVDYCAVAAYYDKYYVYWGQGTQVTVSC | low polyreactivity |
| QVQLVESGGGLVLAGGSLRLSCAASGTIFGYYAMGWYRQAPGKDRELVAAITSDGDTYYADSVKGRFTISRDNAKNTVYLQMNSLKPEDTAVYYCNATYGGPYYIQYDYWGQGTQVTVSS | low polyreactivity |
| QVQLVESGGGLVQAGGSLRLSCAASGSTFSSYAMGWYRQAPGKERELVAAISSRGGRTYYADSVKGRFTISRDNAKNTVYLQMNSLKPEDTAVYYCAVVPFTEHDYWGQGTQVTVSS | high polyreactivity |
| QVQLVESGGGLVQAGGSLRLSCAASGRTFRYNAMGWYRQAPGKERELVAAISGRGSSTYYADSVKGRFTISRDNAKNTVYLQMNSLKPEDTAVYYCAADRFRLYVGGWWYDYWGQGTQVTVSS | high polyreactivity |
| QVQLVESGGGLVQAGGSLRLSCAASGRIFKTYTMGWYRQAPGKERELVAVSTSVGSTYYADSVKGRFTISRDNAKNTVYLQMNSLKPEDTAVYYCAAETWVPQGYDYWGQGTQVTVSS | high polyreactivity |
| QVQLVESGGGLVQAGGSLRLSCAASGFTFYSYAMGWYRQAPGKERELFAAITQSGGSTYYADSVKGRFTISRDNAKNTVYLQMNSLKPEDTAVYYCAADIYNDYDYGYYYWGQGTQVTVSS | low polyreactivity |
| QVQLVESGGGLVQAGGSLRLSCAASGSIFLEYTMGWYSQAPGKECVLVAAITSGGSTKYADSVKGRFTISRDTAKNTVYLQMNILKPEDTAVYYCNARHYSREFDYWGQGTQVTVSS | low polyreactivity |
| QVQLVESGGGLVQAGGSLRLSCAASGSTFYFNAMGWSRQAPGKERELVAAIDWSGGSTYYADSVKGRFTISRDNAKNTVYLQMNSLKPEDTAVYYCITVPNRARISTLYGYDYWGQGTQVTVSS | low polyreactivity |
| QVQLVESGGGLVQAGGSLRLSCAASGIIFHRNDMGWYRQAPGKERELVANIRDGGITYADSVKGRFTISRDKAKNTVYLQMNSLKPEDTAVYYCARDDTSPGYGDQSSNAAYYYWGQGTQVTVSS | low polyreactivity |
| QVQLVESGGGLVQAGGSLRLSCAASGRIFYYNAKGWYRQAPGKERELVATISRGGSTYYADSVKGRFTISRDNAKNTVDLQMNSLKPEDTAVYYCATRVLYYQSSYDYWGQGTQVTVSS | high polyreactivity |
| QVQLVESGGGLVQAGGSHRLSCSASGRIFARNVMGWYRQAPGKERELVAAITYSGGRTYYADSVKGRFTISRDNAKNTVYLQMNSLKPEDTAVYYCNAKSFSPPGYRGFDYWGQGTQVTVSS | low polyreactivity |
